Data as given in article PMC9378516 (Journal of molecular biology, 2022).

Molecular target: the molecule itself
Test: AUC

B1: TRF2 (hTERF2), full-length construct, residues 5-542 (natural protein, human, UniProt Q15554-3 5-542, looked up)
chain: AGTAGPASGPGVVRDPAASQPRKRPGREGGEGARRSDTMAGGGGSSDGSGRAAGRRASRSSGRARRGRHEPGLGGPAERGAGEARLEEAVNRWVLKFYFHEALRAFRGSRYGDFRQIRDIMQALLVRPLGKEHTVSRLLRVMQCLSRIEEGENLDCSFDMEAELTPLESAINVLEMIKTEFTLTEAVVESSRKLVKEAAVIICIKNKEFEKASKILKKHMSKDPTTQKLRNDLLNIIREKNLAHPVIQNFSYETFQQKMLRFLESHLDDAEPYLLTMAKKALKSESAASSTGKEDKQPAPGPVEKPPREPARQLRNPPTTIGMMTLKAAFKTLSGAQDSEAAFAKLDQKDLVLPTQALPASPALKNKRPRKDENESSAPADGEGGSELQPKNKRMTISRLVLEEDSQSTEPSAGLNSSQEAASAPPSKPTVLNQPLPGEKNPKVPKGKWNSSNGVEEKETWVEEDELFQVQAAPDEDSTTNITKKQKWTVEESEWVKAGVQKYGEGNWAAISKNYPFVNRTAVMIKDRWRTMKRLGMN
- stoichiometry N: 2
